Laboratory results: IntAct's records for PubMed 24165324

Target: gsk3b_human GSK3B (UniProt P49841)
Chain of UniProt P49841 (P49841 whole entry, looked up): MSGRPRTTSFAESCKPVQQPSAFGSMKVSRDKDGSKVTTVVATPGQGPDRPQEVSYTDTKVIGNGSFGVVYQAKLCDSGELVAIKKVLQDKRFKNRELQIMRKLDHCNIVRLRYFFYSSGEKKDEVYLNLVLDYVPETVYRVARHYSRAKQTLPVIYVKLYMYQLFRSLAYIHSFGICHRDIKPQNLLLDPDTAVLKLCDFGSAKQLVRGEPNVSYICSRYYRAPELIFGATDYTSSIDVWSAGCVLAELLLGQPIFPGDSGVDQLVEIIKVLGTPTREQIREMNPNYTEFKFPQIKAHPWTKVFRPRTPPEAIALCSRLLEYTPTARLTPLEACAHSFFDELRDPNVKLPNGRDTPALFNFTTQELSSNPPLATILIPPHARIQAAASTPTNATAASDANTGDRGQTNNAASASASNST

effect of a mutation on the interaction: increasing interaction
Substance: Leucine-rich repeat serine/threonine-protein kinase 2 (Homo sapiens), Q5S007 G2019S
